The experiment concerns the target T1, NLRP1 (Homo sapiens, UniProt Q9C000).
T1 sequence (Q9C000 1-1473): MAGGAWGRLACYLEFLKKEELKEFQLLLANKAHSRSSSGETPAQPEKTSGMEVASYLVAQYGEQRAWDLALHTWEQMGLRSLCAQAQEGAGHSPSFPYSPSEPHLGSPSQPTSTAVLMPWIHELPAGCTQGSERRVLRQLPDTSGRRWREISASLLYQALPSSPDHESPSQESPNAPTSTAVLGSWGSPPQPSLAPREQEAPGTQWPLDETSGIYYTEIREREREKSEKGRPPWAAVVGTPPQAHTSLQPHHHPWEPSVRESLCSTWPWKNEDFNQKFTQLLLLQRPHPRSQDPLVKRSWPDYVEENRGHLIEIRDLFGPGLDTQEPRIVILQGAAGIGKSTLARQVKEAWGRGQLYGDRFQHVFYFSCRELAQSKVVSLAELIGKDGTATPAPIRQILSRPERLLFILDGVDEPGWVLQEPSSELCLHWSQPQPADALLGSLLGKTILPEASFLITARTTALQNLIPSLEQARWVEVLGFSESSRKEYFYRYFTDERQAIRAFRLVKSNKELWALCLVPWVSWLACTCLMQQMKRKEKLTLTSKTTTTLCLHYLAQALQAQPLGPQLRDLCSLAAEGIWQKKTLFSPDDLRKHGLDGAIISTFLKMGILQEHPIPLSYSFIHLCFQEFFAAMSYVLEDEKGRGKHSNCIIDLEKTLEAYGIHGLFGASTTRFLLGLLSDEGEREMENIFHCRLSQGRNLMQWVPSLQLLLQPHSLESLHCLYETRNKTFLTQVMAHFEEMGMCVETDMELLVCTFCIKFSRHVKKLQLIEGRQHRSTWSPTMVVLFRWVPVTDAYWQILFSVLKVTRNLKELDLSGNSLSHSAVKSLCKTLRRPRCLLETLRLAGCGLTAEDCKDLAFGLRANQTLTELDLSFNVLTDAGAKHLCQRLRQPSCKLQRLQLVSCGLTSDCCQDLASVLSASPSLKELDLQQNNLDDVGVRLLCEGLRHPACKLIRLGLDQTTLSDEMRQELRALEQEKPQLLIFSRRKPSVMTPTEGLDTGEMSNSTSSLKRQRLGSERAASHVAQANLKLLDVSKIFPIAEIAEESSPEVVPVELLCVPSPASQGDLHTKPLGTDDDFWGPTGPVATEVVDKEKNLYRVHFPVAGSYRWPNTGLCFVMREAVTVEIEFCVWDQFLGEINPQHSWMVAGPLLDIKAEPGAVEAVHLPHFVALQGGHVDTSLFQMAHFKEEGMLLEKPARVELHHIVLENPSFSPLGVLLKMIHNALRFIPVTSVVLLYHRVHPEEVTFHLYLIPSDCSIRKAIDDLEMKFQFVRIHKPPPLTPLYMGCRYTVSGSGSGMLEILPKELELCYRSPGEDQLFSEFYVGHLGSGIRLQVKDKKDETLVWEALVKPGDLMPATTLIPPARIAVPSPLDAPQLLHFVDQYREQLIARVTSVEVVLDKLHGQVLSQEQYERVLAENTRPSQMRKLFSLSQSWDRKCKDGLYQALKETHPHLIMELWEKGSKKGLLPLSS
The experiment can be described thus: FITC-ATP binding to NLRP1 by fluorescence polarization assay (FPA). Conditions: protein 1 μM at excess; NLRP1 0.125 μM; FITC-ATP 10 nM; MDP-LD 1 μM. (In fluorescence polarisation assays a small probe gives low polarisation when free and higher when bound to something large.)

The source of these data is US20100093623A1, “COMPOSITIONS AND METHODS FOR […]-LIKE RECEPTOR ACTIVITY AND USES THEREOF” (Burnham Institute for Medical Research, priority 2008, published 2010).

B1: Bid: control protein (Bcl-2 family) (protein, UniProt P55957 1-195, looked up)
BH3-interacting domain death …: MDCEVNNGSSLRDECITNLLVFGFLQSCSDNSFRRELDALGHELPVLAPQWEGYDELQTDGNRSSHSRLGRIEADSESQEDIIRNIARHLAQVGDSMDRSIPPGLVNGLALQLRNTSRSEEDRNRDLATALEQLLQAYPRDMEKEKTMLVLALLLAKKVASHTPSLLRDVFHTTVNFINQNLRTYVRSLARNGMD
Regarding B1, the “reduction of FITC-ATP binding to NLRP1” value was “negligible effects”.
